# Laboratory results as given in US10806913B2, “Methods for better delivery of active agents to tumors” (Sorrento Therapeutics, Inc., priority 2015, dated 2020).
# Entries after “also recorded” stand apart in the source; their conditions may differ.
# Experiments:
# [1] = In vivo near infrared imaging of lymphatic delivery after administration to the skin; parameters: species or system rats; conditions: fluorescently tagged, needle array placed dorsally, FIG. 11 and 12
# Experimental: The ability to deliver the protein therapeutic Etanercept directly to the lymphatic system via administration to the skin was tested. Etanercept was fluorescently tagged for in vivo visualization using near infrared light as previous described, see Sevick-Muraca et al., J. Clin Invest., 124(3), 905-914 (2014), which is incorporated by reference herein for its teachings thereof. Etanercept was administered to the skin of rats by μlacing a delivery device comprising an array of needles dorsally on the rats.
# [2] = Biodistribution across tissue types after delivery to the skin; assay type: in vivo, rats; conditions: skin delivery compared to i.v., s.c. or i.d., FIG. 13
# Description: The biodistribution of etanercept across multiple tissues types following delivery was investigated.
# [3] = Blood serum absorption rate after delivery to the skin; assay type: in vivo; conditions: skin administration compared to i.v., s.c. or i.d.; FIG. 14
substance,measurement,setting,value
Etanercept,lymphatic uptake and distribution to lymph nodes,[1],uptake by the lymphatic vasculature and subsequent distribution to primary and secondary lymph node tissues
same,lymphatic uptake and distribution to lymph nodes,[1]; listed as Etanercept,delivery directly to the lymphatic vasculature and lymph node tissues; also recorded: delivery to the axillary and mandibular lymph nodes
same,levels within the axillary and inguinal lymph nodes,[2],much higher levels
same,levels within the axillary and inguinal lymph nodes,[2]; listed as Etanercept,increased delivery to the lymph nodes
same,blood serum absorption rate,[3],approximately the same
